Measured values: US20240360208A1 (Hoffmann-La Roche, published 2024)

T1: human CCL8 (MCP2) - P8A variant (human, UniProt P80075 24-99)
T1 construct: Proline 8 of mature CCL8 (NP_005614.2) mutated to alanine; also called monomeric human CCL8; CCL8 P8A variant (monomer)
T1 chain: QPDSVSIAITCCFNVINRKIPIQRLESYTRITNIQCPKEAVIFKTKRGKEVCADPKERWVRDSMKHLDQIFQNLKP


Legend:
[1] = biological target: T2, human CCL2 (MCP1) - P8A variant (human, UniProt P13500 24-99); assay: SPR T200, 37 C, anti-human Fc capture, 1:1 model, pH 7.4
T2 construct: In-house point mutant that cannot dimerise; also called monomeric human CCL2; monomeric CCL2
Protocol: (§1) Anti-human Fc (GE Healthcare) was immobilized on each flow cells of a CM4 sensor chip using amine coupling kit (GE Healthcare) according to the recommended settings by the manufacturer. Antibodies and analytes were diluted into ACES pH 7.4 or pH 5.8 buffer (20 mM ACES, 150 mM NaCl, 1 mg/ml BSA, 0.05% Tween 20, 0.005% NaN3). […] Sensor surface was regenerated each cycle with 3M MgCl2.

[2] = biological target: T2, human CCL2 (MCP1) - P8A variant; assay: SPR T200, 37 C, anti-human Fc capture, 1:1 model, pH 5.8
Protocol: as §1

[3] = biological target: T2, human CCL2 (MCP1) - P8A variant; assay: SPR T200, 37 C
Protocol: as §1

[4] = biological target: T1, human CCL8 (MCP2) - P8A variant; assay: SPR T200, 37 C, anti-human Fc capture, 1:1 model, pH 7.4; pH 7.4
Protocol: as §1

Kd [1] | Kd [2] | fold weaker KD at pH 5.8 than at pH 7.4 [3] | Kd [4] | Binder
0.00685 nM | 21.7 nM | > 1000 fold | – | CKLO03 (IgG1 wild type) (bispecific antibody, V domains shown, CrossMab, IgG1 wild type with knobs-into-holes; also called CKLO3; 11K2H1503/11K2L1201//CNTO888H0695/CNTO888L0616) VH 1: QVQLVQSGAEVKKPGSSVKVSCKASGLTISHTYMHWVRQAPGQGLEWMGRIDPDNHNTKFDPKFQGRVTITADTSTSTAYMELSSLRSEDTAVYYCARGVFGFFDHWGQGTTVTVSS VL 1: DIQMTQSPSSLSASVGDRVTITCKATEDIYNRLAWYQQKPGKAPKLLIHGATSLEHGVPSRFSGSGSGTDYTLTISSLQPEDFATYYCQQFRSAPYTFGGGTKVEIK VH 2: QVQLVQSGAEVKKPGSSVKVSCKASGGTFSHYGISWVRQAPGQGLEWMGGVIPIFHTANYAQKFQGRVTITADESTSTAYMELSSLRSEDTAVYYCARYDAHYGELDFWGQGTLVTVSS VL 2: EIVLTQSPATLSLSPGERATLSCRASQHVSDAYLAWYQQKPGQAPRLLIYDASDRAEGVPARFSGSGSGTDFTLTISSLEPEDFAVYYCHQYIHLHSFTFGQGTKVEIK
– | – | – | 23.3 nM | CKLO01 (IgG1 wild type) (bispecific antibody, V domains shown, also called CKLO1; 11K2H1503/11K2L1338//CNTO888H0695/CNTO888L0616) VH 1: QVQLVQSGAEVKKPGSSVKVSCKASGLTISHTYMHWVRQAPGQGLEWMGRIDPDNHNTKFDPKFQGRVTITADTSTSTAYMELSSLRSEDTAVYYCARGVFGFFDHWGQGTTVTVSS VL 1: DIQMTQSPSSLSASVGDRVTITCKAFEDIYNRRAWYQQKPGKAPKLLIHGATSLEHGVPSRFSGSGSGTDYTLTISSLQPEDFATYYCQQFWSAPYTFGGGTKVEIK VH 2: QVQLVQSGAEVKKPGSSVKVSCKASGGTFSHYGISWVRQAPGQGLEWMGGVIPIFHTANYAQKFQGRVTITADESTSTAYMELSSLRSEDTAVYYCARYDAHYGELDFWGQGTLVTVSS VL 2: EIVLTQSPATLSLSPGERATLSCRASQHVSDAYLAWYQQKPGQAPRLLIYDASDRAEGVPARFSGSGSGTDFTLTISSLEPEDFAVYYCHQYIHLHSFTFGQGTKVEIK
